Results from the RNAGym collection of RNA variant scans (doi:10.7554/elife.80360).

B1: CPEB3 Ribozyme (parent)
chain: GGGGGCCACAGCAGAAGCGUUCACGUCGCGGCCCCUGUCAGAUUCUGGUGAAUCUGCGAAUUCUGCUGU

Variants of: B1
Assay: self-cleavage, relative activity (ratio to wild type); higher = more cleavage; co-transcriptional

Variant	self-cleavage
G11C C18A	0.0969
G11C C18U	0.246
G11A G56A	0.708
G11A G56U	0.475
G11U G14U	0.144
G11U G14C	0.161
G11C G17U	0.144
G11C G17C	0.143
G11A C45G	0.859
G11C C24U	0.334
G11C C24A	0.321
G11C U49A	0.882
G11A C66U	0.967
G11U G48C	0.878
G11C G19C	0.145
G11C U43A	0.357
G11C U43C	0.571
G11A G47C	0.895
G11A G47U	0.937
G11A G47A	0.942
G11U G28C	0.116
G11U G28U	0.192
G11U A51G	0.921
G11U A51U	0.785

Variant	self-cleavage
G11A A23G	0.792
G11A A23U	0.855
G11A A23C	0.775
G11A C57U	0.332
G11A C57A	0.287
G11U A15U	0.295
G11A G65A	0.759
G11A G65U	0.781
G11A U38G	0.142
G11A U38C	0.733
G11A U38A	0.684
G11U G56C	0.367
G11U G56A	0.701
G11U G56U	0.404
G11C A16G	0.471
G11A G17U	0.142
G11A G17A	0.119
G11A G17C	0.122
G11U C39A	0.36
G11U C39U	0.527
G11U C39G	0.536
G11C A60G	0.434
G11C A60U	0.243
G11C C33G	0.507

Variant	self-cleavage
G11U A13U	0.184
G11U A13G	0.527
G11U A13C	0.146
G11A U49G	0.965
G11A U49A	0.926
G11C C34A	0.615
G11C C34U	0.901
G11C C34G	0.578
G11C A40U	0.26
G11C A40G	0.643
G11C A40C	0.179
G11C G56A	0.564
G11C G56U	0.359
G11U U21A	0.895
G11A C34U	0.93
G11U A52G	0.901
G11A G19U	0.088
G11A G19C	0.133
G11C C57G	0.284
G11C C57U	0.238
G11U A23U	0.945
G11U A23G	0.651
G11U A23C	0.685
G11C C63A	0.275

Variant	self-cleavage
G11C C63G	0.299
G11C A51C	0.624
G11C A51U	0.621
G11C A51G	0.73
G11A G50U	0.927
G11A G50C	0.715
G11A A40C	0.14
G11A A15U	0.574
G11A A15G	0.807
G11A G68U	0.915
G11A G68C	0.947
G11A G68A	0.956
G11C G37A	0.217
G11C G37C	0.103
G11C U46A	0.866
G11C U46G	0.849
G11C U46C	0.787
G11U G47C	0.954
G11U G47A	0.897
G11U G41U	0.359
G11U G41A	0.217
G11U C33G	0.619
G11U C33A	0.765
G11C A59U	0.36

Variant	self-cleavage
G11C A59C	0.324
G11A U61C	0.268
G11A U61G	0.392
G11A U61A	0.452
G11C G68A	0.907
G11C G68C	0.823
G11C C22U	0.143
G11C C22A	0.177
G11C A23U	0.798
G11A C24U	0.259
G11A C24A	0.345
G11A C24G	0.16
G11A U20G	0.154
G11A U20C	0.213
G11U G50U	0.916
G11U G50C	0.797
G11C G31A	0.693
G11U G25U	0.136
G11U G25A	0.141
G11A A13U	0.186
G11A G37A	0.188
G11A G37C	0.196
G11A U26A	0.676
G11C U20A	0.115

Variant	self-cleavage
G11C U20C	0.158
G11C C54G	0.261
G11C C54U	0.618
G11U C66G	0.949
G11U C66U	0.955
G11U C66A	0.918
G11A U21A	0.875
G11A U21C	0.633
G11U C22G	0.112
G11U C22A	0.129
G11U C22U	0.179
G11C C45A	0.757
G11C C45U	0.804
G11A A42U	0.548
G11A A42G	0.586
G11A A42C	0.544
G11C G30C	0.435
G11C G30A	0.522
G11C G41A	0.209
G11C C66A	0.844
G11U A40G	0.668
G11U A40C	0.213
G11A C33U	0.908
G11A C33G	0.733

Variant	self-cleavage
G11A G30C	0.672
G11A G30U	0.32
G11A G30A	0.663
G11A A59U	0.41
G11A A52U	0.837
G11A A52C	0.865
G11C G47U	0.916
G11C G47A	0.907
G11C G47C	0.896
G11A C12A	0.74
G11A C12G	0.788
G11C U61G	0.383
G11C U61A	0.424
G11A U62A	0.537
G11A U62C	0.391
G11U C32G	0.295
G11U C32U	0.854
G11U A42G	0.476
G11U A42C	0.342
G11C U38A	0.729
G11C U38G	0.113
G11A U55G	0.317
G11A U55A	0.348
